How the values were obtained:
[1] = target: T1, BmILF (interleukin enhancer binding factor homolog) (Bombyx mori (Bm12 cell cDNA), UniProt A0A1U9WZ16 1-382); experiment: EMSA
T1 sequence: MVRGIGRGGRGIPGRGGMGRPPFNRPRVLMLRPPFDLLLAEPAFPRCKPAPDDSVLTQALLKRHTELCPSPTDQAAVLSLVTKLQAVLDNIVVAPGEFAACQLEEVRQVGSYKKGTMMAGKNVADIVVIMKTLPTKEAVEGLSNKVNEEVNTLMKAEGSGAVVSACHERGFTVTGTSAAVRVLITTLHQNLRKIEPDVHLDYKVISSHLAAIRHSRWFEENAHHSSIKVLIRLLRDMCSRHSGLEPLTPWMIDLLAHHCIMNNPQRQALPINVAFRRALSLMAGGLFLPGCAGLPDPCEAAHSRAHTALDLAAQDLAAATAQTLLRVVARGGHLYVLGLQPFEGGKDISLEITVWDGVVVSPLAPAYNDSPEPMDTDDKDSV

[2] = target: T1, BmILF (interleukin enhancer binding …); experiment: competition
[3] = target: T1, BmILF (interleukin enhancer binding …); experiment: EMSA; remark: listed apart in the source

## TTGTTGCCCCGCCCCTCGGCCCCCTCGCGCCCCGCACTGG (structured_DNA) [BmPOUM2 i-motif wild-type probe]
[1]
  binding result: binds

## TTGTTGCCCCGCCCCTCGGCCCCCTCGCGCCCCGCACTGG (structured_DNA) [unlabeled wild-type i-motif cold probe]
[2]
  binding result: binds

## TTGTTGCACTGCTACTCGGCTCACTCGCGCATCGCACTGG (ssDNA) [BmPOUM2 i-motif mutant probe]
[3]
  binding result: no binding

Reference: article PMC5829645
